Test results from patent publication US8304236B2, “Modified biotin-binding protein” (Japan Tobacco Inc., priority 2008, dated 2012).
Positions count from the first letter of the chain named. In names and notes the source's numbering stands. Entries after “also recorded” stand apart in the source; their conditions may differ.

B1: TM2 K26A: TM2 mutant in which lysine at position 26 was replaced with alanine; SEQ ID NO: 4 (protein)
chain: MSDVQSSLTGTWYNELNSKMELTANADGTLTGKYLSKVGDVYVPYPLSGRYNLQPPAGQGVALGWAVSWENSKIHSATTWSGQFFSESSPVILTQWLLSSSTARGDVWESTLVGNDSFTKTAPTEQQIAHAQLHCRAPRLK
modifications: Synthetic TM2 K26A
B2: TM2 R104E: TM2 mutant in which arginine at position 104 was replaced with glutamic acid; SEQ ID NO: 8 (protein)
chain: B1 chain with A26K, R104E
modifications: Synthetic TM2 R104E
B3: TM2 K141E: TM2 mutant in which lysine at position 141 was replaced with glutamic acid; SEQ ID NO: 10 (protein)
chain: B1 chain with A26K, K141E
modifications: Synthetic TM2 K141E
B4: TM2 K73Q: TM2 mutant in which lysine at position 73 was replaced with glutamine; SEQ ID NO: 6 (protein)
chain: B1 chain with A26K, K73Q
modifications: Synthetic TM2 K73Q
B5: TM2 D40N: TM2 mutant in which aspartic acid at position 40 was replaced with asparagine; SEQ ID NO: 20 (protein)
chain: B1 chain with A26K, D40N
modifications: Synthetic TM2 D40N
B6: TM2 K33TK37A: TM2 mutant, lysine 33 replaced with threonine and lysine 37 with alanine; SEQ ID NO: 12 (protein)
chain: B1 chain with A26K, K33T, K37A
modifications: Synthetic TM2 K33TK37A
B7: TM2 K33TK37AR104E: TM2 mutant, lysine 33 to threonine, lysine 37 to alanine, arginine 104 to glutamic acid; SEQ ID NO: 14 (protein)
chain: B1 chain with A26K, K33T, K37A, R104E
modifications: Synthetic TM2 K33TK37AR104E
B8: TM2 K19T: TM2 mutant in which lysine at position 19 is replaced with threonine; SEQ ID NO: 18 (protein)
chain: B1 chain with K19T, A26K
modifications: Synthetic TM2 K19T

Tested on: human serum protein
Experiment: Non-specific adsorption of low-pI TM2 to human serum protein-immobilized magnetic beads
Assay type: binding
Settings: FIG. 1
Procedure: In this embodiment, non-specific binding to human serum was investigated as non-specific adsorption of low-pI TM2 to serum protein-immobilized magnetic beads. Specifically, in order to investigate the non-specific binding of low-pI TM2, the amount of low-pI TM2 adsorbed to magnetic beads to which human serum protein was covalently bonded was measured. TM2 K26A, TM2 K73Q, TM2 R104E, TM2 K141E, and TM2 R104EK141E, which were highly expressed in Escherichia coli, were used as the low-pI TM2 to be investigated.
Human serum protein and magnetic beads were bound to each other as follows. Magnetic beads having surfaces coated with carboxyl groups (Dynabeads M-270 Carboxylic Acid, Dynal, 210 μL) were washed with 0.01 N sodium hydroxide (210 μL) for 10 minutes and then with ultrapure water (210 μL) for 10 minutes three times. To the washed magnetic beads, 1-ethyl-3-(3-dimethylaminopropyl)carbodiimide hydrochloride (EDC, PIERCE) dissolved in cooled ultrapure water was added into a final concentration of 0.2 M, and the mixture was shaken at room temperature for 30 minutes. Then, the magnetic beads were washed with cooled ultrapure water (210 μL) and then with 50 mM MES buffer (pH 5.0, 210 μL).
To the magnetic beads, 1 mg/mL human serum protein (CHEMICON, 210 μL) dialyzed with 50 mM MES buffer (pH 5.0) was added. The mixture was shaken at room temperature for 30 minutes to covalently bind the human serum protein to the magnetic beads. The magnetic beads were collected with a magnet to remove the supernatant. The unreacted active groups on the beads were eliminated with 50 mM tris buffer (pH 7.0, 210 μL), and then the magnetic beads were blocked with a PBS buffer (420 μL) containing 0.5% BSA and 0.1% Tween 20. The magnetic beads were suspended in a PBS buffer (210 μL) to obtain human serum protein-immobilized magnetic beads.
The magnetic beads (7 μL) and 0.56 μg/mL of each low-pI TM2 (100 μL) were mixed for reaction at room temperature for 1 hour. The magnetic beads were collected with a magnetic, and the supernatant was removed. After washing with 20 mM potassium phosphate buffer (500 μL) containing 500 mM sodium chloride, the magnetic beads were mixed with 20 μL of 2×SDS sample buffer (250 mM Tris-HCl, pH 6.8, 20% 2-mercaptoethanol, 20% SDS, 20% glycerol), followed by heating at 95° C. for 20 minutes to dissociate the low-pI TM2 from the magnetic beads.
This sample was subjected to SDS-PAGE and then western blotting analysis to determine the amount of the low-pI TM2. Anti-tamavidin 2 rabbit antibody and alkaline phosphatase-labeled anti-rabbit IgG goat antibody were used as the primary antibody and the secondary antibody, respectively. The bands were detected with Alkaline Phosphatase Substrate Kit II <VECTOR Black> (VECTRO) and were quantified with Las-3000 (FUJIFILM).

| non-specific binding to human serum protein compared to TM2 | Molecule | decrease of adsorption to human serum protein compared to the wild type TM2 |
| --- | --- | --- |
| significantly low | B1 | 30% |
| – | B2 | 10% |
| significantly low | B3 | 40% |
| significantly low | B4 | 40% |

Same assay, conditions: summary of Example 1, paragraphs 1-9) and 1-11)

| non-specific binding and adsorption, % of that of the wild type TM2 | Molecule |
| --- | --- |
| about 60% | B1 |
| about 60% | B3 |
| about 60% | B4 |

Same assay, conditions: wild type TM2 = 100

| Non-specific binding of serum protein (%) | Molecule |
| --- | --- |
| 68% | B1 |
| 90% | B2 |
| 58% | B3 |
| 55% | B4 |

Tested on: not listed separately
Experiment: Biotin-binding test (Biacore 3000, biotin-LC-BSA immobilized)
Settings: not given
Procedure: High-purity BSA (Sigma, 2 mg) and NHS-LC-biotin (Pierce, 1 mg) were dissolved in 50 mM sodium borate (pH 8.0, 1 mL) and were incubated at 4° C. for 2 hours. The solution was put into a dialysis tube (MWCO 6-8,000) and was dialyzed with 50 mM sodium carbonate (pH 6.7) at 4° C. overnight. The resulting biotin-LC-BSA conjugate (MW: 67 kDa, 30 μM) was used as a ligand for a Biacore (registered trademark) biosensor.
Biotin-LC-BSA and BSA serving as a negative control were immobilized on CM5 sensor chips by amine coupling method. The amount for immobilization was adjusted to about 200 RU. The chips to which BSA was immobilized were disposed in flow cells 1 and 3, while the chips to which biotin-LC-BSA was immobilized were disposed in flow cells 2 and 4.
Accordingly, seven step measurement (3.125, 6.25, […], 25, 50, 100, and 200 nM) was conducted from the lowest concentration, without recycling steps. The data of BSA as reference was deducted from the data of BSA-LC-biotin. The measurement was performed at 25° C. The resulting sensorgrams were subjected to reaction kinetics analysis using analysis software BIAevaluation ver. 4.1 with a 1:1 binding model to calculate the binding rate constant (ka) and the dissociation rate constant (kd). The dissociation constant (KD) was determined from kd/ka. In the case where no recycling step is employed, the Rmax (maximum amount of binding analyte) decreases at each measurement. Accordingly, in the analysis, the Rmax was calculated by conducting local fitting for each concentration, and only the data of analyte concentrations that were approximated to the 1:1 binding model was employed.
TM2 and HALU TM2 used as analytes were prepared by purification with 2-iminobiotin agarose in accordance with a common method and dialysis with 20MM KPi (pH 7) overnight. The analytes were each adjusted to about 50 μg/mL in 10 mM acetate buffer (pH 5, Biacore).
The immobilization of the ligand and measurement and analysis of specific interaction with the analytes were conducted as in paragraph 2-7-2).

| biotin-binding ability (affinity) compared to the wild type TM2 | Molecule |
| --- | --- |
| increased; also recorded: enhanced | B5 |

Same assay, conditions: dissociation monitored for 60 minutes

| dissociation from biotin-LC-BSA | Molecule |
| --- | --- |
| not dissociated | B5 |

Tested on: not listed separately
Experiment: Heat stability of protein structure (soluble protein after heating, SDS-PAGE)
Assay type: physicochemical
Settings: heated for 20 minutes
Procedure: 3-8) Heat Stability of HALU TM2 Protein Structure Each of 0.2 μg/μL TM2 mutant solutions (10 μL (2 μg)) was heated at room temperature, 50, 60, 70, 80, 90, or 99° C. for 20 minutes. Then, the solution was centrifuged at 15000 rpm for 10 minutes, and the soluble protein in the supernatant was suspended in the same volume of 2×SDS sample buffer (250 mM Tris-HCl, pH 6.8, 20% 2-mercaptoethanol, 20% SDS, 20% glycerol). The suspension was heated at 95° C. for 10 minutes, followed by SDS-PAGE. The protein bands were detected by CBB staining A standard curve was prepared using a quantitative marker (LMW ELECTROPHORESIS CALIBRATION KIT; Pharmacia Biotech) with Las-3000 (FUJIFILM) to quantify the protein bands.

| Molecule | Thermal stability (temp. at which 50% of protein was lost) |
| --- | --- |
| streptavidin [reference compound] | 70 °C |

Tested on: not listed separately
Experiment: Isoelectric focusing electrophoresis (pI observed)
Assay type: physicochemical
Settings: pH 3 to 10 gel
Procedure: The isoelectric point of each low-pI TM2 was measured by isoelectric focusing electrophoresis using an XCell SureLock Mini-Cell (Invitrogen). In accordance with the instruction, each low-pI TM2 (500 ng) and an IEF sample buffer (pH 3 to 10 (2×), Invitrogen) were mixed and were added to a polyacrylamide gel (pH 3 to 10, IEF Gel, Invitrogen) at a pH ranging from 3 to 10, followed by electrophoresis at a variable voltage of 100 V for 1 hour, 200 V for 1 hour, and 500 V for 45 minutes in this order.
After the electrophoresis, the gel was shaken in a blotting buffer (0.7% acetic acid) for 10 minutes and then was transferred onto a PVDF membrane at 10 V for 1 hour using an XCell ll Blot Module (Invitrogen). The PVDF membrane was subjected to reaction with anti-TM2 rabbit antibody (PCT/W2006/326260) serving as a primary antibody and with alkaline phosphate-labeled anti-rabbit IgG antibody (BIO-RAD) serving as a secondary antibody, followed by detection of bands with Alkaline Phosphatase Substrate Kit II
The isoelectric point of the high-affinity TM2 was measured by isoelectric focusing electrophoresis using an XCell SureLock Mini-Cell (Invitrogen). […] The electric point of TM2 D40N having replacement of the […] amino acid was higher than that of the wild type TM2 also in the isoelectric focusing electrophoresis.
The isoelectric point of HALU TM2 was measured by isoelectric focusing electrophoresis using an XCell SureLock Mini-Cell (Invitrogen). In accordance with the instruction, bands of each HALU TM2 (4 μg) were detected by CBB staining. […] The observed isoelectric point of TM2 D40N was 9.7, and was reduced to 8.9 after introduction of mutation of R104E and was reduced to 7.3 to 7.5 after further introduction of mutation of K141E.

| Molecule | pI observed |
| --- | --- |
| B1 | 7.3 to 7.6 |
| B5 | 9.7 |
| B2 | 7.0 to 7.5 |
| B6 | 6.2 |
| B7 | 5.9 to 6.0 |
| B3 | 6.6 to 7.2 |
| B4 | 7.7 |
| B8 | 6.6 to 7.5 |
